Laboratory results published in the supplement of paper PMC10567573.

B1: ZNF8 (parent)
chain: SLGRHKRTHTGEKPYTCSVCGKSF

Variants of: B1
Experiment: protein stability index of a GFP-peptide fusion (GPS, HEK-293T) (PSI 1-6); higher = more stable
Details: c terminus: a fixed tail appended
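Further: lentivirally expressed fusions sorted by FACS into six bins by GFP to DsRed ratio, PSI derived from sequencing read proportions per bin multiplied by bin number.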

Going from SLGRHKRTHTGEKPYICSVCGKSF to SLGRHKRTHTGEKPYMCSVCGKSF, the protein stability index rises from 2.75 to 2.85.

Going from SLGRHKRTHTGEKPYFCSVCGKSF to SLGRHKRTHTGEKPYNCSVCGKSF, the protein stability index falls from 3.04 to 2.97.

First: SLGRHKRTHTGEKPYECSVCGKSF
Second: SLGRHKRTHTGEKPYACSVCGKSF
The protein stability index of the first is higher: 2.98 for the first, 2.95 for the second.

First: SLGRHKRTHTGEKPYHCSVCGKSF
Second: SLGRHKRTHTGEKPYRCSVCGKSF
The protein stability index of the first is lower: 2.77 for the first, 2.89 for the second.

Compared with SLGRHKRTHTGEKPYVCSVCGKSF, SLGRHKRTHTGEKPYYCSVCGKSF is lower in protein stability index: 3.01 for the first, 2.61 for the second.

First: SLGRHKRTHTGEKPYQCSVCGKSF
Second: SLGRHKRTHTGEKPYDCSVCGKSF
The protein stability index of the first is higher: 3.14 for the first, 2.81 for the second.

Compared with SLGRHKRTHTGEKPYCCSVCGKSF, SLGRHKRTHTGEKPYLCSVCGKSF is lower in protein stability index: 2.31 for the first, 2.25 for the second.

First: SLGRHKRTHTGEKPYKCSVCGKSF
Second: SLGRHKRTHTGEKPYSCSVCGKSF
The protein stability index of the first is higher: 2.68 for the first, 2.51 for the second.

Compared with SLGRHKRTHTGEKPYWCSVCGKSF, SLGRHKRTHTGEKPYPCSVCGKSF is lower in protein stability index: 2.33 for the first, 2.19 for the second.

Going from SLGRHKRTHTGEKPYTCSVCGKSC to SLGRHKRTHTGEKPYTCSVCGKSA, the protein stability index falls from 4.13 to 3.1.

First: SLGRHKRTHTGEKPYTCSVCGKSD
Second: SLGRHKRTHTGEKPYTCSVCHKSF
The protein stability index of the first is higher: 3.83 for the first, 2.78 for the second.

Going from SLGRHKRTHTGEKPYTCSVCDKSF to SLGRHKRTHTGEKPYTCSVCMKSF, the protein stability index falls from 3.11 to 2.71.

Compared with SLGRHKRTHTGEKPYTCSVCPKSF, SLGRHKRTHTGEKPYTCSVCRKSF is lower in protein stability index: 3.12 for the first, 3.03 for the second.

Going from SLGRHKRTHTGEKPYTCSVCTKSF to SLGRHKRTHTGEKPYTCSVCNKSF, the protein stability index falls from 3.14 to 2.98.

First: SLGRHKRTHTGEKPYTCSVCAKSF
Second: SLGRHKRTHTGEKPYTCSVCCKSF
The protein stability index of the first is higher: 2.35 for the first, 2 for the second.

First: SLGRHKRTHTGEKPYTCSVCFKSF
Second: SLGRHKRTHTGEKPYTCSVCKKSF
The protein stability index of the first is lower: 2.5 for the first, 3.36 for the second.

Going from SLGRHKRTHTGEKPYTCSVCLKSF to SLGRHKRTHTGEKPYTCSVCVKSF, the protein stability index rises from 1.9 to 2.17.

First: SLGRHKRTHTGEKPYTCSVCWKSF
Second: SLGRHKRTHTGEKPYTCSVCSKSF
The protein stability index of the first is lower: 1.88 for the first, 2.94 for the second.

Compared with SLGRHKRTHTGEKPYTCSVCQKSF, SLGRHKRTHTGEKPYTCSVCEKSF is lower in protein stability index: 2.59 for the first, 2.1 for the second.

First: SLGRHKRTHTGEKPYTCSVCIKSF
Second: SLGRHKRTHTGEKPYTCSVCYKSF
The protein stability index of the first is higher: 2.01 for the first, 1.92 for the second.

Going from SLGRHKRTHTGEKPYTCLVCGKSF to SLGRHKRTHTGEKPYTCWVCGKSF, the protein stability index rises from 2.44 to 2.84.

Compared with SLGRHKRTHTGEKPYTCEVCGKSF, SLGRHKRTHTGEKPYTCAVCGKSF is lower in protein stability index: 3.38 for the first, 2.94 for the second.

Going from SLGRHKRTHTGEKPYTCVVCGKSF to SLGRHKRTHTGEKPYTCYVCGKSF, the protein stability index falls from 2.83 to 2.71.

Compared with SLGRHKRTHTGEKPYTCKVCGKSF, SLGRHKRTHTGEKPYTCTVCGKSF is lower in protein stability index: 2.98 for the first, 2.68 for the second.

Going from SLGRHKRTHTGEKPYTCPVCGKSF to SLGRHKRTHTGEKPYTCDVCGKSF, the protein stability index falls from 3 to 2.76.

Compared with SLGRHKRTHTGEKPYTCRVCGKSF, SLGRHKRTHTGEKPYTCMVCGKSF is higher in protein stability index: 2.54 for the first, 2.58 for the second.

Going from SLGRHKRTHTGEKPYTCFVCGKSF to SLGRHKRTHTGEKPYTCIVCGKSF, the protein stability index rises from 2.08 to 2.34.

First: SLGRHKRTHTGEKPYTCCVCGKSF
Second: SLGRHKRTHTGEKPYTCQVCGKSF
The protein stability index of the first is lower: 2.63 for the first, 3.16 for the second.

Compared with SLGRHKRTHTGEKPYTCGVCGKSF, SLGRHKRTHTGEKPYTCNVCGKSF is lower in protein stability index: 2.83 for the first, 2.02 for the second.

Going from SLGRHKRTHTGEKPYTCHVCGKSF to SLGRHKRTHTGEKPYTNSVCGKSF, the protein stability index rises from 2.26 to 3.78.

Compared with SLGRHKRTHTGEKPYTFSVCGKSF, SLGRHKRTHTGEKPYTRSVCGKSF is higher in protein stability index: 2.4 for the first, 2.75 for the second.

Going from SLGRHKRTHTGEKPYTISVCGKSF to SLGRHKRTHTGEKPYTSSVCGKSF, the protein stability index rises from 2.38 to 3.3.

Compared with SLGRHKRTHTGEKPYTHSVCGKSF, SLGRHKRTHTGEKPYTTSVCGKSF is lower in protein stability index: 3.32 for the first, 3.19 for the second.

First: SLGRHKRTHTGEKPYTVSVCGKSF
Second: SLGRHKRTHTGEKPYTMSVCGKSF
The protein stability index of the first is higher: 3.58 for the first, 2.96 for the second.

First: SLGRHKRTHTGEKPYTWSVCGKSF
Second: SLGRHKRTHTGEKPYTDSVCGKSF
The protein stability index of the first is lower: 2.81 for the first, 4.3 for the second.

Compared with SLGRHKRTHTGEKPYTPSVCGKSF, SLGRHKRTHTGEKPYTKSVCGKSF is higher in protein stability index: 3.17 for the first, 3.65 for the second.

First: SLGRHKRTHTGEKPYTLSVCGKSF
Second: SLGRHKRTHTGEKPYTASVCGKSF
The protein stability index of the first is lower: 2.33 for the first, 3.81 for the second.

Compared with SLGRHKRTHTGEKPYTESVCGKSF, SLGRHKRTHTGEKPYTQSVCGKSF is lower in protein stability index: 3.77 for the first, 3.76 for the second.

Compared with SLGRHKRTHTGEKPYTGSVCGKSF, SLGRHKRTHTGEKPYTYSVCGKSF is lower in protein stability index: 3.49 for the first, 2.77 for the second.

Compared with SLGRHKRTHTGEKPYTCSHCGKSF, SLGRHKRTHTGEKPYTCSDCGKSF is higher in protein stability index: 3.06 for the first, 3.5 for the second.

First: SLGRHKRTHTGEKPYTCSRCGKSF
Second: SLGRHKRTHTGEKPYTCSICGKSF
The protein stability index of the first is higher: 3.15 for the first, 2.79 for the second.

First: SLGRHKRTHTGEKPYTCSWCGKSF
Second: SLGRHKRTHTGEKPYTCSYCGKSF
The protein stability index of the first is lower: 1.88 for the first, 2.64 for the second.

Compared with SLGRHKRTHTGEKPYTCSLCGKSF, SLGRHKRTHTGEKPYTCSNCGKSF is higher in protein stability index: 2.29 for the first, 3.47 for the second.

Going from SLGRHKRTHTGEKPYTCSTCGKSF to SLGRHKRTHTGEKPYTCSQCGKSF, the protein stability index rises from 2.75 to 3.45.

First: SLGRHKRTHTGEKPYTCSFCGKSF
Second: SLGRHKRTHTGEKPYTCSCCGKSF
The protein stability index of the first is lower: 2.67 for the first, 3.68 for the second.

Compared with SLGRHKRTHTGEKPYTCSPCGKSF, SLGRHKRTHTGEKPYTCSACGKSF is lower in protein stability index: 3.06 for the first, 2.36 for the second.

Going from SLGRHKRTHTGEKPYTCSGCGKSF to SLGRHKRTHTGEKPYTCSKCGKSF, the protein stability index rises from 2.7 to 2.93.
